How the values were obtained:
[1] = molecular target: T1, Plasmodium falciparum cytoplasmic phenylalanyl-tRNA synthetase (PfcFRS) beta subunit (Plasmodium falciparum); experiment: SDS-PAGE of the final purified protein (co-purification of the α and β subunits)
T1 construct: Tags are not described; also called PfcFRS β subunit; Pf-β
T1 chain: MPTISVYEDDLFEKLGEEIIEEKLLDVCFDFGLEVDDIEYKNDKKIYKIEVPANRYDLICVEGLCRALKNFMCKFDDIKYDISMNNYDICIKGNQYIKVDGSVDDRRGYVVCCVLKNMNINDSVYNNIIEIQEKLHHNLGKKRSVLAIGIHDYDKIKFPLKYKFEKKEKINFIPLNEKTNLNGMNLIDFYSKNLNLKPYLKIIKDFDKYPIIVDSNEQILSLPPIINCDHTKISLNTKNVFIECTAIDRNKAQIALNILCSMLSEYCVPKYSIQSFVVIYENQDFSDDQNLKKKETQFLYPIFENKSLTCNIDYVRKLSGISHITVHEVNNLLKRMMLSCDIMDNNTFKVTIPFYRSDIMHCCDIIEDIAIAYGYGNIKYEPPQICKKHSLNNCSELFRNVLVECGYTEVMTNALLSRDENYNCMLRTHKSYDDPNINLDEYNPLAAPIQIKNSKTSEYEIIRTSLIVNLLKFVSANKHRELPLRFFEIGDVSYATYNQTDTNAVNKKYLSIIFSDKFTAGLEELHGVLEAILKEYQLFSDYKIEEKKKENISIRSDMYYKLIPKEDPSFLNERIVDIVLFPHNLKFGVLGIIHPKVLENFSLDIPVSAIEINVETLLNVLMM

[2] = molecular target: T2, Plasmodium vivax cytoplasmic phenylalanyl-tRNA synthetase (PvcFRS) beta subunit (PVX_090880) (Plasmodium vivax, UniProt A5K464 1-617); experiment: analytical gel filtration (Superdex 200) of co-expressed, co-purified alpha and beta subunits
T2 construct: Said to be full-length; Tag or fusion residues from the vector are not described; Two copies stand in the α2β2 heterotetramer; also called PvcFRS β subunit; PvFRS β subunit
T2 sequence: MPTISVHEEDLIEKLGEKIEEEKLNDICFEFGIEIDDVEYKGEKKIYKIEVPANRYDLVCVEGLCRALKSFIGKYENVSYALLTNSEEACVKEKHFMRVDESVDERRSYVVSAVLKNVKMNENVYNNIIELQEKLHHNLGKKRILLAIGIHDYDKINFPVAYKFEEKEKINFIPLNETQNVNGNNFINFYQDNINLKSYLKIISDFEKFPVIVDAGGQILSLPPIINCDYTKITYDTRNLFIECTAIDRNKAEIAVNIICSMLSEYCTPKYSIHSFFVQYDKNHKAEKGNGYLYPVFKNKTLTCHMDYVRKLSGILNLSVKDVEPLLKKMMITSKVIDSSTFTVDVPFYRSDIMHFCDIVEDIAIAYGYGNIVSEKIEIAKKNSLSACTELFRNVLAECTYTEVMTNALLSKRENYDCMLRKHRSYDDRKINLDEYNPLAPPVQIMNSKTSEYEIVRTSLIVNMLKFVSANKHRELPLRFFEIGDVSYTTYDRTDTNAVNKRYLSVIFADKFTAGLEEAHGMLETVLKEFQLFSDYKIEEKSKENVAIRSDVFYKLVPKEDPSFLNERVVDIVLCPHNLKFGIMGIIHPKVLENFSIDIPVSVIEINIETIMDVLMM

Row | Binder | binding result [1] | binding result [2]
1 | Plasmodium falciparum cytoplasmic phenylalanyl-tRNA synthetase (PfcFRS) alpha subunit (enzyme, Tags are not described; also called PfcFRS α subunit) MSTNNVEEKKNEELYNLLNILEEEFNLSKIENKNNNKNDDGDDDDVNKREDNNNNEYYKKLKDEKGLDVLINEYTTSLKISKKYNIDHNKVMGMIKKLETLYYIINLIKSFNTYHLSDEGKQYLKEGSPEFIVIKYVIQNNKCTLEDLKKNLGKIGDIGLNTNLKNRTIQLNKADKCLTCNCNLHDIQDFTQIYLDIINQYGHDEELLFAHLKNKNHTKNALNNNEMKNSCKDNNIINNLIQDLKKRKLLEIKKNSYSHVIKTSIFKKDIKKQITDINYLLLKNEEYKKYDIKKYNFFSSGKKINKGNIHLLTKQMRTFKEIFFSLGFEEMETHNYVESSFWCFDALYIPQQHPSRDLQDTFFIKEPETCIDKFVDTEYIDNIKRVHTHGDYGSFGWNYKWKLEESKKNVLRTHTTANSCRALFKLAKEYKEAGCIKPKKYFSIDRVFRNENLDSTHLAEFHQVEGLIIDKNIGLSHLIGTLAAFYKHIGIHKLKFKPTFNPYTEPSMEIYGYHEQSKKWLEVGNSGIFRPEMLRSMGFSEEVSVIAWGLSLERPTMIKYNIKNIRDLFGYKSVV | binds | –
2 | Plasmodium vivax cytoplasmic phenylalanyl-tRNA synthetase (PvcFRS) alpha subunit (PVX_081300) (enzyme, Said to be full-length; Tag residues from the vector are not described; Two copies stand in the α2β2 heterotetramer; Residues 1-270 were disordered in the crystal; also called PvcFRS α subunit; PvFRS α subunit) MQAKAQEEQKGEELSQFLQALEEEFALCQEGGGDKREADGPSLENAEAEELANRRAYYLQLKEERNVLVEESKHVTSLHMSSKHNIEHAKVLGMAKKLETLYYVVNHVRSFNTYQLTEEGKEYLRDGSPEHVTLRYVMEQEGCTLEDLKKLFGKKGEIGLNINLKKKKIELRKSDKRLFPHVEGSAHSLVDETRCYLQKVEAHGNDEGALVSHLKGILPPEKGEKKEEDEANNLIKELKKRKLIEAKKISYIYIIRTNLFTKEIKKQITDLTYLLIKNEEYKKYQVKKYNFFSSGKKMNKGNIHLLIRQMRTFKDVFVSLGFEEMNTHNYVESSFWCFDALYIPQQHPSRDLQDTFFIKVPEMCQEEFTDQSYIENVKRVHSVGDYGSFGWNYQWELKSTKKNVLRTHTTANSCRALFQLAKEYQKTGSIIPKKFFSIDRVFRNENLDSTHLAEFHQVEGLIIDRNLGLSHLIGTLSAFYKYIGISKLRFKPTFNPYTEPSMEVYGYHEENKKWLEVGNSGIFRPEMLRAMGFPPEVSVIAWGLSLERPTMIKYSIRNIRDLFGYRSVI | – | binds

From patent US20230279018A1, “AP[…] INHIBITION” (priority 2020, published 2023)
